B1: EKC/KEOPS complex subunit LAGE3 (Homo sapiens), Q14657 (parent)
chain: MRDADADAGGGADGGDGRGGHSCRGGVDTAAAPAGGAPPAHAPGPGRDAASAARGSRMRPHIFTLSVPFPTPLEAEIAHGSLAPDAEPHQRVVGKDLTVSGRILVVRWKAEDCRLLRISVINFLDQLSLVVRTMQRFGPPVSR
partner: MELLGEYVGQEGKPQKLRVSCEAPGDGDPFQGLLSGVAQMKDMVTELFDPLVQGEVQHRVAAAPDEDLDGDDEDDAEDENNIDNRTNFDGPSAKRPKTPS

The source of these data is IntAct's records for PubMed 31481669.

The variants in this assay derive from B1. Conditions: with gon7_human GON7, Q9BXV9.
As for V106F, the “effect of a mutation on the interaction” value is on record as “with no effect”.

For the variant F137S, the “effect of a mutation on the interaction” value is “with no effect”.
